In general, koff refers to a measure of how fast the partners let go of each other. High values mean fast dissociation, low ones slow dissociation. Broadly, the Kd is the concentration at which binding is half-saturated. Read a low Kd as higher affinity. A word on the kon: it is the rate constant with which the complex forms.

Data set [1] concerns the target T1, human PDGF-BB (platelet derived growth factor B homodimer) (human, UniProt P01127 82-190).
T1 construct: Platelet derived growth factor B, human, homodimer, bought from PeproTech; the printed catalogue number may stand for 100-14B; source: bought: PeproTech, Catalog 100-148
Kind of data set: SPR; Biacore T200, off-rate screen; antibody captured (~70 to 100 RU) by anti-human IgG amine-coupled to a CM5 chip; human PDGF-BB injected at a single 2.5 nM for 170 s, dissociation 300 s; HBS-EP+ N (10 mM HEPES, 500 mM NaCl, 3 mM EDTA, 0.05% Tween20, pH 7.4); 25 C. To be noted: both partners purified. (In general: SPR reads the build-up and loss of mass on a sensor chip optically.)

The target in data set [2] is T1, human PDGF-BB (platelet derived growth …). Kind of data set: SPR; Biacore T200, full kinetics; antibody captured by anti-human IgG on a CM5 chip; human PDGF-BB at 20, 10, 5, 2.5 and 1.25 nM, 50 s injection; HBS-EP+ N; 25 C; 1:1 Langmuir fit. To be noted: both partners purified.
The nature of data set [3]: AC-SINS; self-association assay, as in Avery et al. [35]; score = smoothed max absorbance of the antibody sample minus that of the average blank (PBS); scores >=11 considered high. To be noted: other: AC-SINS.

T1 sequence (P01127 82-190): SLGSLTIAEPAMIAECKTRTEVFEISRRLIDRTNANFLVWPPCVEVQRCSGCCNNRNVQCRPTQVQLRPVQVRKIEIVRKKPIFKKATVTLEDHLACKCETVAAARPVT

B1: AB-001 (antibody, V domains shown)
VH: EVQLLESGGGLVQPGGSLRLSCAASGFTFSSYAMSWVRQAPGKGLEWVSYISDDGSLKYYADSVKGRFTISRDNSKNTLYLQMNSLRAEDTAVYYCAKHPYWYGGQLDLWGQGTLVTVSS
VL: SYELTQPPSVSVSPGQTASITCSGDSLGSYFVHWYQQKPGQSPVLVIYDDSNRPSGIPERFSGSNSGNTATLTISGTQAMDEADYYCSAFTHNSDVFGGGTKLTVL
notes: VH of AB-001; VL of AB-001; only the variable regions are written; also called parental AB-001; parental clone; source: HEK293, transient, purified from conditioned medium (protein A, TMAE, HIC)
In data set [1], B1 displayed a koff of 0.000319 s⁻¹. Further, in data set [2], binding was put at a Kd of 0.0948 ± 0.0292 nM, the off-rate constant (koff) is 0.000457 s⁻¹ and the kon amounted to 5.05e+06 M⁻¹ s⁻¹. In data set [3], this molecule displayed an AC-SINS Score of 22.

Values taken from PMC7205207, “Modeling and mitigation of high-concentration antibody viscosity through structure-based computer-aided protein design” (PLoS ONE, 2020).
